17 molecules from patent US20240043568A1 (KEYMED BIOSCIENCES, published 2024) can be followed below.

Test [1] concerns the target T1, human GPC3 on cells (human, UniProt P51654 25-563).
T1 construct: whole, on cells; One molecule is used for both CHO-hGPC3 transfectants and GPC3+ HepG2 cells; The assay field names the cell; also called CHO-hGPC3 (clone 2B10); CHO-human GPC3
Kind of test: flow cytometry, CHO-human GPC3 cells. As for the experimental part:
The binding of the antibodies to human GPC3 stably-transfected cells was detected by FACS. CHO-human GPC3 stably-transfected cells prepared in Example 1 in the logarithmic growth phase were adjusted to 5×10⁵ cells/ml with 4% calf serum (Hyclone, SH30626.06). 100 μl/well of cell suspension was added to a 96-well U-plate, and centrifuged at 300 g for 5 min. The supernatant was discarded. 100 μL of gradient diluted antibodies (initial concentration 200 nM, 3-fold dilution, 12 gradients) was added to each well and incubated at 4° C. for 45 min. The secondary antibody Alexa Fluro647 labeled goat anti-human IgG Fc (1:300 dilution) was added at 50 μL/well, incubated on ice for 45 minutes, and detected by flow cytometry.
A general note: Flow cytometry measures light scatter and fluorescence of single cells or particles in a stream.

Test [2] deals with T2, recombinant human GPC3 protein (human, UniProt P51654 25-563).
T2 construct: also called human GPC3 full-length protein; recombinant GPC3 protein
Kind of test: BLI (Octet), antibody on Protein A probe. How it is done:
Using BLI technology (Octet), the antibody to be tested was captured on the Protein A probe. The binding capacity with human GPC3 protein (10 μg/ml as the initial concentration, 2-fold gradient, a total of 5 concentration points) was detected. The affinity constant KD was obtained according to the association and dissociation rates.

Test [3] deals with T2, recombinant human GPC3 protein. Kind of test: ELISA on coated recombinant human GPC3 protein, OD450 [panel Recombinant human GPC3 protein].
Test [4] has the same target. Kind of test: BLI (Octet), antibody on Protein A probe. As for the experimental part:
Using BLI technology (Octet), the antibody to be tested was captured on the Protein A probe. The binding capacity with human GPC3 protein (10 μg/ml as the initial concentration, 2-fold gradient, a total of 5 concentration points) was detected. The affinity constant KD was obtained according to the association and dissociation rates. The 49G8 humanized antibody binds to the recombinant GPC3 protein with high affinity. The affinity data is seen in Table 6.
This is another data set of the same source. On the technique in general: In BLI a coated tip is dipped into the sample, and binding shifts an interference pattern.

In test [5] the target is recombinant cynomolgus monkey GPC3 full-length protein (cynomolgus monkey, UniProt A0A2K5VK50 24-558). Kind of test: ELISA on coated recombinant cynomolgus monkey GPC3 protein, OD450 [panel Recombinant cynomolgus monkey GPC3 protein].
Test [6] concerns the target T1, human GPC3 on cells. Kind of test: flow cytometry on human GPC3-CHO stably-transfected cells, MFI.
The target in test [7] is T3, human CD3εγ-Fc heterodimer (human).
T3 construct: also called human CD3 εγ protein; recombinant CD3 εγ protein
T3 chain 1: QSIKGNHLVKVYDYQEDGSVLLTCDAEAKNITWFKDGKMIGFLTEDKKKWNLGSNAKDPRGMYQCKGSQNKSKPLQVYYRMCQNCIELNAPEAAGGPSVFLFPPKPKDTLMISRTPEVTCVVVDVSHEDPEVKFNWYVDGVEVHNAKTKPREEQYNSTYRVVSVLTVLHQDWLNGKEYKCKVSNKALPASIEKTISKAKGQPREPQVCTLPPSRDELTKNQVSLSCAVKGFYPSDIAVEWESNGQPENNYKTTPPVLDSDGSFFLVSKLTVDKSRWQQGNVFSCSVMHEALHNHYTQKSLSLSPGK
T3 chain 2: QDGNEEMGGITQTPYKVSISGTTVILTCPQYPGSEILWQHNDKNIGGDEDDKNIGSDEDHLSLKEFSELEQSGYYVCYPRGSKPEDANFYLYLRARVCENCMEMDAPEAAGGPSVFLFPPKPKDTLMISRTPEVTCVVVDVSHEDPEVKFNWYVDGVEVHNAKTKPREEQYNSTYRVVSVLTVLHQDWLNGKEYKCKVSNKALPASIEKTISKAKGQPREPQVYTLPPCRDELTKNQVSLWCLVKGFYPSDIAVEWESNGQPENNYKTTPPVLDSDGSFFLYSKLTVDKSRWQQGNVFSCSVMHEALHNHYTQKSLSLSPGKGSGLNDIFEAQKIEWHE
Kind of test: ELISA, coated human CD3εγ protein. How it is done: Human CD3 εγ protein was coated overnight at 4° C. After blocking with 2% skim milk, different dilutions of CD3 antibodies was added to each well and incubated for 1 hour. The secondary antibody HPR-labeled goat anti-human IgG Fc was added. After being developed by the TMB solution, the reaction was stopped with the concentrated sulfuric acid, and the absorbance was read at 450 nm (the results are shown in FIG. 12 and Table 8).
A general note: An ELISA detects its analyte on a solid surface through an enzyme-linked reagent.

Changes are numbered by the printed parent chain. Read-outs that look alike come from different tables or passages of the source.

B1: 5D6 (antibody, V domains shown)
VH: QVQLQQSGAELVRPGASVKLSCKALGYTFADYEIHWVKQTPVHGLEWIGAIHPGSGGTAYNQTFEGKATLTADKSSTTAYMELSSLTSEDSAVYYCTRYYSFAYWGQGTLVTVSA
VL: DVLMTQTPLSLPVSLGDQASISCRSSQSLVHSNGNTYLHWYLQKPGQSPKLLIYKVSNRFSGVPDRFSGSGSGTDFTLKISRVEAEDLGVYFCSQSTHVPLTFGAGTKLELK
notes: Chimeric IgG: murine variable regions on human IgG1 CH1-CH3 and an antibody light chain constant region
For B1, the midpoint of the response in the test with human GPC3 on cells [1], the EC50, lay at 3.73 nM. In addition, in test [2], the dissociation constant Kd stood at 27.7 nM, the off-rate (koff) amounted to 0.00292 s⁻¹ and the kon is 105000 M⁻¹ s⁻¹.

B2: 47B6 (antibody, V domains shown)
VH: QVQLQQSGAELMKPGASVKISCKATGYTFSSYWIEWVKQRPGHGLEWIGEILPGSGSTNYNEKFKGKATFTADTSSNTAYMQLSSLTSEDSAVYYCARGYWGQGTLVTVSA
VL: B1 VL with V2I, L3V, T7A, L101R, A105G, L111I
notes: Chimeric human IgG1
Turning to B2, the response in the test with human GPC3 on cells [1] was half-maximal at 0.38 nM (EC50). Further, in test [2], the Kd came out at 48.2 nM, the koff is 0.00149 s⁻¹ and the kon was 30800 M⁻¹ s⁻¹.

B3: 46C3 (antibody, V domains shown)
VH: QVQLQQSGPELVKPGASVKISCKASGYTFTDYYINWVKQKPGQGLEWIGWIYPGSGNTKYNEKFKGKATLTVDTSSSTAYMQLSSLTSEDTAVYFCARGRWGQGTLVTVSA
VL: B1 VL with L3V, G16R, L101R, A105G
notes: Chimeric human IgG1
In turn, B3 registered a concentration for a half-maximal effect (EC50) with human GPC3 on cells [1] of 0.46 nM. Moreover, in test [2], the Kd is 24.3 nM, the off-rate (koff) worked out at 0.00154 s⁻¹ and the on-rate constant (kon) was 63600 M⁻¹ s⁻¹.

B4: 19F1 (antibody, V domains shown)
VH: B1 VH
VL: DVLMTQTPLSLPVSLGDQASISCRSSQSLVHSNGNTYLHWYLQKPGQSPKLLIYKVSNRFSGVPDRFSGSGSGTDFTLKISRVEAEDLGVYFCSQSTHIPTFGGGTKLELK
notes: Chimeric human IgG1
Turning to B4, the 50% effective concentration (EC50) with human GPC3 on cells [1] was 3.59 nM. In addition, in test [2], the Kd turned out to be 18.3 nM, the koff worked out at 0.00213 s⁻¹ and the on-rate (kon) was found to be 116000 M⁻¹ s⁻¹.

B5: 39G4 (antibody, V domains shown)
VH: B1 VH
VL: B4 VL with L3V, M4V, I99V, L110I
notes: Chimeric human IgG1
In turn, B5 displayed a concentration giving a half-maximal response (EC50) with human GPC3 on cells [1] of 2.79 nM. For the same molecule, in test [2], the Kd came out at 26.2 nM, the koff was 0.00208 s⁻¹ and the on-rate (kon) turned out to be 79500 M⁻¹ s⁻¹.

B6: 41F1 (antibody, V domains shown)
VH: B1 VH
VL: B1 VL with S96N
notes: Chimeric human IgG1
In turn, B6 yielded a 50% effective concentration (EC50) in the test with human GPC3 on cells [1] of 0.91 nM. For the same molecule, in test [2], the Kd worked out at 18.5 nM, the koff came out at 0.00181 s⁻¹ and the kon is 97900 M⁻¹ s⁻¹.

B7: 42A1 (antibody, V domains shown)
VH: B1 VH with N61S, E65K, Y100F
VL: B1 VL with L3V, M4V, V99A, L101Y, A105G, K108R, L111I
notes: Chimeric human IgG1
For the molecule B7, in the test with human GPC3 on cells [1], the response was half-maximal at 6.69 nM (EC50). For the same molecule, in test [2], the Kd came to 40.5 nM, the off-rate constant (koff) was found to be 0.00243 s⁻¹ and the association rate constant (kon) is 60000 M⁻¹ s⁻¹.

B8: 41H1 (antibody, V domains shown)
VH: B1 VH
VL: B1 VL with L3V, K79R, H98R
notes: Chimeric human IgG1
On to B8, for which the 50% effective concentration (EC50) with human GPC3 on cells [1] stood at 1.07 nM. Further, in test [2], the Kd was determined as 25 nM, the dissociation rate constant (koff) turned out to be 0.00264 s⁻¹ and the kon is 106000 M⁻¹ s⁻¹.

B9: 38D2 (antibody, V domains shown)
VH: B1 VH
VL: DVVMTQTPLSLPVSLGDQASISCRSSQSLENSNGNTYLNWYLQKPGQSPQLLIYRVSNRFSGVLDRFSGSGSGTDFTLKISRVEAEDLGVYFCLQVTHVPYTFGGGTKLEIK
notes: Chimeric human IgG1
Turning to B9, the concentration for a half-maximal effect (EC50) with human GPC3 on cells [1] was 3.35 nM. In test [2], the Kd is 11.3 nM, the koff was determined as 0.000832 s⁻¹ and the on-rate (kon) was 73400 M⁻¹ s⁻¹.

B10: 30A4 (antibody, V domains shown)
VH: B1 VH with T28A, E65K
VL: B1 VL with L3V
notes: Chimeric human IgG1
Molecule B10 had a concentration for a half-maximal effect (EC50) with human GPC3 on cells [1] of 3.68 nM. In test [2], the dissociation constant (Kd) came to 19.9 nM, the koff came to 0.00258 s⁻¹ and the association rate constant (kon) was determined as 130000 M⁻¹ s⁻¹.

B11: 28G4 (antibody, V domains shown)
VH: B1 VH with Q1E, E65K
VL: B1 VL with L29I, H39Q, F92Y, S94F, S96G, T97S, L101Y, A105G, L111I
notes: Chimeric human IgG1
On to B11, for which, in the test with human GPC3 on cells [1], the half-maximal effective concentration (EC50) turned out to be 2.87 nM. In test [2], the equilibrium dissociation constant (Kd) is 11.3 nM, the koff was found to be 0.00112 s⁻¹ and the association rate constant (kon) came to 98900 M⁻¹ s⁻¹.

B12: 34H1 (antibody, V domains shown)
VH: B1 VH
VL: B1 VL with L3V, T97I
notes: Chimeric human IgG1
Consider B12, for which the EC50 with human GPC3 on cells [1] is 2.1 nM. Also, in test [2], the equilibrium dissociation constant (Kd) is 12.9 nM, the koff was 0.00221 s⁻¹ and the kon was 171000 M⁻¹ s⁻¹.

B13: 29A10 (antibody, V domains shown)
VH: B1 VH with Q1E, E65K
VL: B1 VL with L3V, L111I
notes: Chimeric human IgG1
B13 gave an EC50 with human GPC3 on cells [1] of 3.39 nM. In test [2], the Kd was 19.8 nM, the koff was found to be 0.00281 s⁻¹ and the association rate constant (kon) turned out to be 142000 M⁻¹ s⁻¹.

B14: 30B7 (antibody, V domains shown)
VH: B1 VH with K19R, A30T, I34M, T63K, E65K, T77S
VL: B1 VL with L111I
notes: Chimeric human IgG1
In the test with human GPC3 on cells [1], B14 came in with an EC50 of 2.78 nM. In test [2], the Kd is 10.9 nM, the koff stood at 0.000783 s⁻¹ and the association rate constant (kon) was 71700 M⁻¹ s⁻¹.

B15: h49G8VHv6VKv2 (antibody, V domains shown)
VH: QVQLVQSGAEVKKPGSSVKVSCKASGYTFADYEIHWVRQAPGQGLEWMGAIHPGSGGTAYAQKFQGRVTLTADESSTTAYMELSSLRSEDTAVYYCTRYYSFAYWGQGTLVTVSS
VL: DVVMTQSPLSLPVTPGEPASISCRSSQSIVHSNYNTYLEWYLQKPGQSPQLLIYKVSNRFSGVPDRFSGSGSGTDFTLKISRVEAEDVGVYFCLQVTHVPLTFGQGTKLEIK
notes: Humanized 49G8; The name is read as h49G8VHv6 plus h49G8VKv2
In the case of B15, the 50% effective concentration (EC50 (read off the curve)) in test [3] is around 0.03 nM. In test [4], the dissociation constant Kd is 2 nM, the koff amounted to 0.000187 s⁻¹ and the kon was determined as 93600 M⁻¹ s⁻¹. In addition, in test [5], the concentration for a half-maximal effect (EC50 (read off the curve)) was around 0.03 nM. In the test with human GPC3 on cells [6], the “EC50 (read off the curve)” value was around 2 nM.

B16: aCD3-hVH8/VL5 (antibody, V domains shown)
VH: EVQLVESGGGLVQPGGSLRLSCAASGFTFNTYAMNWVRKAPGKGLEWVGRIRSKYNNYATYYADSVKDRFTISRDDSKNSLYLQMNSLKTEDTAVYYCARHGNFGNSYVSWFAYWGQGTLVTVSS
VL: QAVVTQEPSLTVSPGGTVTLTCRSSTGAVTTSNYANWVQEKPGQAPRGLIGGTNKRAPWTPARFSGSLLGGKAALTITGAQAEDEAEYYCVLWYSNLWVFGGGTKLTVL
notes: Human IgG4, lambda
B16: the EC50 in test [7] amounted to 0.74 nM.

B17: aCD3-hVH9/VL3 (antibody, V domains shown)
VH: B16 VH with A99V
VL: B16 VL with Q1E, R23E, T26D, R56E, I77L, T78S, A82P, V91A
notes: Human IgG4, lambda
B17 yielded a half-maximal effective concentration (EC50) in test [7] of 0.7 nM.

One may read the EC50 as the concentration needed to bring the measured effect to its halfway point. The Kd is the constant that tells how readily two partners part at equilibrium. As a reminder, the koff is a measure of how fast the partners let go of each other. A word on the kon: it is a measure of how fast the partners come together. Broadly, the EC50 (read off the curve) is the concentration that produces a half-maximal response.
